Experimental findings from paper PMC4609182 (The EMBO Journal, 2015) are described below.

Broadly, the Kd is the concentration at which binding is half-saturated. Lower therefore signals higher affinity.

Numbering of substitutions follows the chain as printed. Names and notes keep the numbering of the source.

Common to all, as to details: both partners purified
The target of test [1] is Phosphorylated ubiquitin (phospho-Ser65 ubiquitin) (UniProt P0CG48 1-76, phosphoserine at 65). The experiment in a line: ITC; Parkin constructs titrated with pUb; 20°C; 50 mM Tris–HCl pH 7.4, 150 mM NaCl, 1 mM TCEP; stoichiometry determined experimentally.
The target in test [2] is T1, UbcH7 (E2 ubiquitin-conjugating enzyme) (UniProt P68036 1-154). The experiment in a line: ITC; Parkin constructs titrated with UbcH7; 20°C; 50 mM Tris–HCl pH 7.4, 150 mM NaCl, 1 mM TCEP; stoichiometry fixed to 1:1. On the technique in general: Isothermal titration calorimetry measures the heat released or taken up as one component is titrated into another.
Test [3] deals with His-tagged phosphorylated ubiquitin (UniProt P0CG48 1-76, phosphoserine at 65). Nature of the test: pull-down; 1 nmol His-tagged pUb on Ni-NTA resin, 15 min with 1 nmol R0RBR variant; TBS, 2 mM BME, 0.02% Igepal 630; SDS–PAGE, Coomassie.
Test [4] addresses T1, UbcH7 (E2 ubiquitin-conjugating enzyme). Nature of the test: NMR titration; 15N-UbcH7 with unlabeled Parkin constructs with or without pUb; 1H-15N correlation spectra, 293 K; 20 mM Tris–HCl, 120 mM NaCl, 2 mM DTT, pH 7.4; binding read as loss of signals.

T1 sequence (P68036 whole entry): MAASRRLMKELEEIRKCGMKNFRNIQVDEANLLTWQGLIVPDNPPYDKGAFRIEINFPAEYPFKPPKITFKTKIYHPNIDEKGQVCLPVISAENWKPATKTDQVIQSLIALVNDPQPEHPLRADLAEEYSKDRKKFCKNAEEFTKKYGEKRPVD

B1: H302A Parkin R0RBR (domain or fragment, rat)
chain: PTYHSFFVYCKGPCHKVQPGKLRVQCGTCRQATLTLAQGPSCWDDVLIPNRMSGECQSPDCPGTRAEFFFKCGAHPTSDKDTSVALNLITNNSRSIPCIACTDVRNPVLVFQCNHRHVICLDCFHLYCVTRLNDRQFVHDAQLGYSLPCVAGCPNSLIKELAHFRILGEEQYNRYQQYGAEECVLQMGGVLCPRPGCGAGLLPEQGQKKVTCEGGNGLGCGFVFCRDCKEAYHEGECDSMFEASGATSQAYRVDQRAAEQARWEEASKETIKKTTKPCPRCNVPIEKNGGCMHMKCPQPQCKLEWCWNCGCEWNRACMGDHWFDV
The molecule B1 showed a dissociation constant Kd in test [1] of 1330 nM. That is a single-digit micromolar value.

B2: W403A Parkin R0RBR (domain or fragment, rat)
chain: B1 chain with A162H, W263A
Molecule B2 came in with a dissociation constant Kd in test [2] of 119000 nM.

B3: Parkin R0RBR module (RING0, RING1, IBR, RING2), wild type (domain or fragment, rat)
chain: B1 chain with A162H
For B3, the Kd in test [1] is 22 nM; in test [2], over 700000 nM.

B4: K369A Parkin R0RBR (domain or fragment, rat)
chain: B1 chain with A162H, K229A
On to B4, for which the binding result in test [3] is recorded as “binds”.

B5: R271A Parkin R0RBR (domain or fragment, rat)
chain: B1 chain with R131A, A162H
Regarding B5, the binding result in test [3] is recorded as “binds”.

B6: R275A Parkin R0RBR (domain or fragment, rat)
chain: B1 chain with R135A, A162H
As to B6, the binding result in test [3] is on record as “binds”.

B7: K161N Parkin R0RBR (domain or fragment, rat)
chain: B1 chain with K21N, A162H
For B7, the binding result in test [3] is on record as “binds”.

B8: R334A Parkin R0RBR (domain or fragment, rat)
chain: B1 chain with A162H, R194A
B8: the binding result in test [3] is recorded as “binds”.

B9: R314A Parkin R0RBR (domain or fragment, rat)
chain: B1 chain with A162H, R174A
For the molecule B9, in test [3], the binding result is on record as “binds”.

B10: Phosphorylated Parkin (phospho-Ser65 in the Ubl domain) (enzyme, rat, UniProt Q9JK66 1-465, looked up)
chain: MIVFVRFNSSYGFPVEVDSDTSIFQLKEVVAKRQGVPADQLRVIFAGKELQNHLTVQNCDLEQQSIVHIVQRPQRKSHETNASGGDKPQSTPEGSIWEPRSLTRVDLSSHILPADSVGLAVILDTDSKSDSEAARGPEAKPTYHSFFVYCKGPCHKVQPGKLRVQCGTCRQATLTLAQGPSCWDDVLIPNRMSGECQSPDCPGTRAEFFFKCGAHPTSDKDTSVALNLITNNSRSIPCIACTDVRNPVLVFQCNHRHVICLDCFHLYCVTRLNDRQFVHDAQLGYSLPCVAGCPNSLIKELHHFRILGEEQYNRYQQYGAEECVLQMGGVLCPRPGCGAGLLPEQGQKKVTCEGGNGLGCGFVFCRDCKEAYHEGECDSMFEASGATSQAYRVDQRAAEQARWEEASKETIKKTTKPCPRCNVPIEKNGGCMHMKCPQPQCKLEWCWNCGCEWNRACMGDHWFDV
modifications: phosphoserine at 65
Molecule B10 showed a Kd in test [1] of 17 nM.

B11: Full-length L266K Parkin (enzyme, rat, UniProt Q9JK66 1-465, looked up)
chain: B10 chain with L266K
In test [1], B11 yielded a Kd of 37 nM.

B12: Full-length Parkin, unmodified (enzyme, rat, UniProt Q9JK66 1-465, looked up)
chain: B10 chain
In test [1], B12 yielded a Kd of 431 nM.

B13: W403A Parkin (enzyme, rat, UniProt Q9JK66 1-465, looked up)
chain: B10 chain with W403A
In the case of B13, the binding result in test [4] is recorded as “binds”.
